Reference: the DeepSol protein solubility set

Test: soluble on expression in E. coli; label from the status in PepcDB or PDB records

Row | Sequence | soluble on expression in E. coli
1 | MTSAAEITAAVRQLYNTYPFPPEPLLDEPPPGYNWRWSWPAAYSFCTGRYPSQLDVAILDAGCGTGVGTEYLAHLNPQAKITALDLSEAALAIACERCRRSGATNVQFHHLSLEEVAQLGQTFQMINCVGVLHHLPEPQRGIQALADVLAPGGIVHIFVYGEYGRWEIKLMQQAIALLQGSDRHNYREGVAIGRQLFAALPENNRLKKREQERWSLENQRDECFADMYVHPQEIDYTIASLFELIRASGLEFIGFSNPQVWQLERLLGSQPELLQRAQQLDPIQQYQLIECLDPEAMTHFEFFLAKPPLPRHDWAADRELLAAIPWRHPCIDGWPGACVFNCHYEVIHLNQAEQEFLNAASGKATVAELLAQQPDFNLAEVRSLLARHLLLLGVKE | not soluble
2 | MGSDKIHHHHHHMDKRNSCYLCFGFQSRILARESALMDTQSLQAFLAVADHGSFSLAAEQLHLTQPAVSKRIAGLEGQVGAQLFDRLNRRVTLTEAGRTLLPRARQILVMFDDSRRALSNLSGDISGSLTMATSHHVGLHRLPPLLKAYTQAYPDVRMDMRFLDSEQAYQGVLDGDLELAVVTLAPVPDPALTVVPVWIDQLRFVCGREHALAGRDTVALSALSDYDAVLPGHLTFTRGIVVDTFARDGLQVNVSLSTNYLETLKMMVAIGLGWSVLPETMIDDEIEVIPIDHRPIQRPLGYLFHKSRTLSNAARAMLEMLDAARDTTARQWV | not soluble
3 | MGSDKIHHHHHHMHAWESIQITLDLIEANLSEEISINELANKANLSPFYYQRLFKRLVNKTVMEYIKLRRLARASEYLAEHKNRILDVALNFGFASHETFTRSFKKAYGLTPEKYRANPVKLNHFIKPELILNYAMVDEGVPLIADDIVIEVNRKTLSNPRTFVGIEIEVPICQLVGGETTGIAIVEELWMKLGSQRHNIPNQIPGGNEFAALYMGNAKEGNCMYMAGVEVESGTSVEGYSTFELPVKEYLVCGFEAENFNELVNSAVFKADKFMERWMKKHNLTTTDFAIEMYYPTTPEAAYLEHWIVPVPIEQ | not soluble
4 | MSLDSNSQSRSSSASSIGSESETGNAVVVFGYREAITKQILAYFAQFGEILEDLESELGDTETMRTPGYFFQQAPNRRRISREHGRTWTKLTYANHSSYLRALREHGTIYCGAAIGCVPYKHELISELSRDTYNSMNDVKQTNSISTNQLTQHNQSEVPKSNQTFETKPTNETERNQIKTPSAFGSDNKGNGSISSGRTKRRLSIKDGSSLFLSGTDNIFSTLDGQPTKKRMINRDRSLIGKISGWLFGWNDLEGHHHHHH | soluble
5 | MPLELWIVFNLFGRKSPRSNIKPARGPGETVREADLRYLQEWVSTHAVVEAFVEPETIVNEMSVVLVDITGEFTRRRIGGPKGIDVISSTLGVPVYDVEETGYPQRMREKIERDRILRKREEQRERREKLQRERGESQ | not soluble
6 | MTNNQKLVGRHKRLAFMKVGTEGTYDRITGFTSLIEGKEAKEYARQYIDEATERTDVVGYATGIEYAFDRYTNNAVHEKIANITDDELLGVDAQVEIVSVDVFEEKAGGKYPARKRTYSVVPDTTGDGTDALIYSGNFKAVSEIVKGYCTTTDKWQTCTFVEGEIPAEALEHHHHHH | soluble
7 | MGSDKIHHHHHHMKLRNLLPLLGLMASAAHADAVTIQSCGVSQVFDKTPSRAITLNQQATEVMLALGLQEAMVGTAYIDDAIPAQWNDAYESVPVLAEKYPAAEVVLAQEPDFLFAGFGSAFSEDNLGAAEKWHDLGIGTYLVDASCKDKHLQDVPLTVAPIFEDIETVGKIFNVEDRANALIDTLQQRLDSVKAAPSGAGQTAFIYDSGAETPFSIGCCGGPALLASLTGLQSISSDVPGTWVDLSWEHVVAADPDVILLIEADWSTAAEKRAHMEADPVLSALRAVKEGRFVTVPFSETLLGMRFADGVETVNNQLAKLP | not soluble
8 | MTELEEIGININSIENTEQIISQLMDNYSDDVLHLVFSYVKNRTTAEDLTQEIFIKCYEKLDQFNNKSSIKTWLYRIAINHCKDYLGSWHYRKLNFSEKIWNYLPSKSKHVEEEIIAKDVANSLMSAVMDLPVKYREVVFLHYYEELSLANISKITGVNSNTLKTRLKHARELLKTKMKKEV | not soluble
9 | MGSDKIHHHHHHMNKYLNNINASYCCGCSACVHKCPKQCLRMSQDKDGFFFPIVNNREACIDCSLCAKVCPMENMVESDYPHTFYGAYNTNKTDIVNSSSGGIYPSLAKWIISQGGIVFGASLDDEHKLYHIGVSTESDIQKTIGSKYFQSEIRDTYVECKKELDKGRLVLYTGTPCQVHGLKRYLGKDYDNLYTADVICHGVPSSKMFDAYIDFLEKKHNGKLVDINFRDKKRNGWSITLRYTIEYSNDKRKDYYLINKLSEYFMAFLGGYIERESCYSCPFSSMRRPGDITMGDFWGYQFKRPDLKHDEGLSLIIVNSEHGKRIVDVLHRNGVQFNAVDEECVKASENKNLYKPTLRPEVRSVVYDELQNFGFEYIAKKYFRRTQTLRNKAKNYMPVALVNIIKKLK | not soluble
10 | MARPQSKKKQTQVARRPRRRGRWVPPSRLIAGRDFPEFLRQAVLLSGSLRQAARKLRVSYSTLRGWLGRRCEEPPEGERDLLAGHVAAIRTELDVAAEHLAIVRGQLDALERGDDG | not soluble
11 | MSQEKTGLQRPVLAQLSPIAIRGHSDEGVKKLRRRNDDGCFGEALFKGNAPARSLLFGDDACHRRVENLYLLDNNPTNWSGIKTNLKREIPLLQDPTETFARMNKVMHQTLKYVKEVESINFSSRGVIDFNGEVMEDHQRIFLSVCTSVFANFSFSCQMDVEKLLSFLMALFENYSKENAYHNALHAADSVQMLFLILREKPATLIFTENEVILAFLATLSLGFVHPGVSNAFLARIDHPLVLVYGDMTTQQSAGLTALLYLLNREENRFIDLFANSGTQPFSQFLREILVETVLGTAPRLRSSLLRDLEKVAVADAVELNDIPILLAAVVILADNALALRPHAQFVNLAGLMVTEWLREAYEEEQRGMDPLVPNLRKQIYENGLGMAVDYCKVWLRPLITNIRALVPQDLYDNMEGNTEAPSMSEIQDFLVHLDSSNERWNDGSVPVIDIIRRITMHATSLDRKASKRAILNAASNRAVSGFLSRSSSMCLSPNGARMSAEVSEKKINQQPSRCEHYFSFLRLYDTYEKEGRPAAEFAAQLVFLALQLNPEYIGRYTHKGIDVCSKEECEEIAELIMKKEEAPTTAEVIASPLRDGEQTDGFILRLMEMYAERDRERERNDTLNSATNPTSNLRRTLKCYNPVYGGMYSGKKS | soluble
12 | MGSDKIHHHHHHAQNRNTSICRLGFTYDISQSKNWGNNKPVIKSIIPYSSAEQAGIKKYDVIEEINGVPVTEVSVDEIPQLLNPAGRNDVLLTISNLSSPSKQVLVKKDCKKSNAITEDQLASAYAMYSLETTNEQEFVCPFKTTVTSDGVDFGNFKTFAFSTIDENNRKLETVINECIENELTKKGLTVDIAKPDLLIQTFYFFDKNPNYLGANKVLVEKEPTYRYNFSHSKMEKFPFLNYAAAEAEAEYLLQFGIRIIDQKDIPGRVLWECEANELLEDSYRLDEYARVHVPLMCMQYPYTKYGRNVPFKVSKKTYNYTGISYDIDKLDQVVDVDRNSPAYAAGIRPRDIIEKIGRHKMDHSAEEFSSAYKRFITNTMQYRDPKTMFTDANGFKYCMFWDVFKYPQIADASQSSDYLPAFSYLYYFAPYINPSGNNACTFNIKRGKTKLEVIIRPTIRSEVTVEIK | not soluble
13 | MSLSVSFIFLLVASIGAVVADSENVLVLTESNFEETINGNEFVLVKFYAPWCVHCKSLAPKYDEAADLLKEEGSDIKLAKVDATENQALASKFEVRGYPTILYFKSGKPTKYTGGRATAQIVDWVKKKSGPTVTTVESVEQLEELKGKTRVVVLGYFKDAKSDAATIYNEVADSVDDAFFAVAGSAEVAAAASLNEDGVALIRTDGDDSETSTIAEAEITNTIALKQWLHAYKLSAVTEFTHESAQEIVGGDLKKFHFLIIRKSDSSFDETIAKFTEVAKKFRAKIVFVLLDVDVEENARILEFLGVDAKNTPANRIVSLADQVEKFKPQEGEDFEAFTNSYLEGKSAQDLKAQDLPEDWNALPVKVLVASNFNEIALDETKTVFVKFYAPWCGHCKQLVPVWDELAEKYESNPNVVIAKLDATLNELADVKVNSFPTLKLWPAGSSTPVDYDGDRNLEKFEEFVNKYAGSASESETASQDHEEL | not soluble
14 | MSLNPKILEKWMAEGQVTLPQVLVKNYATIGLNEVELVLLLQIQSFAAEAEFFPSMEMLTNRTTLPLEETIKTMDSLLKKGVIAIEQSQDNSRMISEQYNLAPLWGKLVALYENKEADSKHEKELEKQTSLYTLFEAEFGRPLSPMEAEMLSAWVEQDRTSPDLIKEALKEAVISQKLNFRYIDRILLNWSKQGVKTIEDAKRVAEEFHQNGRTSQAINQTEVKKSAGSIPLYDWLEKRKGEGHHHHHH | soluble
15 | MAHHHHHHMKFAFVFPGQGSQSVGMLNAFADVAVVRETLDEASDALGQDIGKLIADGPADELNLTTNTQPVMLTAAYACYRAWQQAGGAQPSIVAGHSLGEYTALVAAGAIAFRDALPLVRFRAQAMQTAVPVGVGGMAAILGLDDDTVRAVCAEASATGVVEAVNFNAPAQVVIAGTKAGIEKACEIAKEKGAKRALPLPVSAPFHSSLLKPASDKLREYLAGVDVKAPKISVVNNIDVAVVSDPAAIKDALVRQAAGPVRWVECVQHIAREGVTHVIECGPGKVLAGLTKRIDGNLVGASVFDPASLDEALKLAAA | soluble
16 | MGSDKIHHHHHHMSESDGQSTPQDTREVIMEATFRALSKHGYKDLRVRDIGEEMEMSRQVIHYHFDGKYDLISSFLEYIIDQYEGSVEVDDETDPRTELDVRIDRCLFGPEFDDFSHWDRMKVYHELYAYAQNDDEHRALFNEHYDRLRKSISTVIEDGVEQGTFLDVDAELMGQLITDVIHAARGRRIALGHEDAPDEAKRAVNDFILDSLYPPQ | not soluble
17 | MKYEVVITSGNSNQAPIGAFFKGDFVTLHLYGGSHTFENLQKDGFYILNTCSPYLIAKSVLDDAGDYEYLDNDGIKIPYLKDSYKIELIEIKSRKIVETKNEFGSSKLMIVEGKPIFEKILNCNTSAYNRADGAVVEMAVLYSRKNMISKEEINDEITRLMKIIKKVGSKNHIELAKKLGV | soluble
18 | AAKEEADSRISPGNIFEEKAKFLVMMESSIYAAKRGDALIAQILILAGRLSKNEAPKEALLFMEKTITGEIDLSVAKNLLIAYMRIRREEKQRDLNSVKNDDAIPSDINIDDLTNT | not soluble
19 | GSHMDKTFCVVVQNRIKEGYRRAGFSFHLGDNSLAAVSESQLAQLKADPRLVVQITETGSQEGGEGLSKEPAGSDEQKQLRADPPSTDLNTFTVEQLKAQLTERGITFKQSATKAELIALFAPADGEKSEA | soluble
20 | MNYHTATITCQTTRPIDIIDITADVRSALEESGLQQGTVTLLSRHTTACLNINEREERLMQDMTTWLKRFIPKDGDWLHNIETIDGRDNAHSHLLGLFMNSSETIPFSEGQLMLGKWQSIFFIELDGPRPKREVLVHIQGELEHHHHHH | soluble
21 | GHMAESQALSDDIGFLLSRVGGMVLGAVNKALVPTGLRVRSYSVLVLACEQAEGVNQRGVAATMGLDPSQIVGLVDELEERGLVVRTLDPSDRRNKLIAATEEGRRLRDDAKARVDAAHGRYFEGIPDTVVNQMRDTLQSIAFPTFVEGS | soluble
22 | PKLVCLVSSSNSFATFLAEEIPIISNKGIGVKGIKLKAEEKVRFAMPLQD | not soluble
23 | MGSDKIHHHHHHMTDLKTTFAGLSLRNPIIISSSGLTNSAGKNKRLAEAGAGAIVLKSLFEEQIMLEADQLKDPAFYPEASDYLEEYIREHKLAEYLTLIKESKKECSIPIIASINCYSDSEWVDFAKQIQEAGADALEINILALQSDVQYTYGSFEQRHIDILRHIKQTVTIPVIMKLGDNLTNPVALIDQLYANGAAAVVLFNRFYQPDINIENMEQVSGEVFSTSADLATPLRWIGIASSVVNKIDYAASGGVANPEAVVKAILAGASAVEVCSAIYQNTNAFIGESTRFLSAWMERKGFKNIAQFKGKLNIKDVQGINTFERTQFLKYFGKKEA | not soluble
